Biological target: tumor necrosis factor-α (TNF-α) (human) (UniProt P01375)
Test: 35S free protein + biotin-TNF-α in solution, biotin capture membrane, phosphorimaging

Sequence of tumor necrosis factor-α (TNF-α) (human) (P01375 77-233 limits assumed): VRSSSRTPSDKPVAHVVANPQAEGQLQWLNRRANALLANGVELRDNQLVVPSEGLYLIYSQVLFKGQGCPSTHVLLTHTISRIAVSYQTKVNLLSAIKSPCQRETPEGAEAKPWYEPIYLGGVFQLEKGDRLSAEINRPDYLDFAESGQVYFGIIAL

B1: T14.06 (designed binder)
chain: VSDVPRDLEVVAATPTSLLISWTRTNASTRYYRITYGETGGNSPVQEFTVPNFWWTATISGLKPGVDYTITVYAVTSPDETSAYSEPISINYRT
Kd: 1.4 nM

— US20170334958A1
